The values that follow come from paper PMC10879843.

In this assay the target is metabotropic glutamate receptor 5 (mouse (endogenous in brain cortex)) (UniProt Q3UVX5). In words: co-IP; mGluR5 immunoprecipitated with rabbit anti-mGluR5 on protein G magnetic beads from brain cortex lysates of 1 month-old WT and SPKO (synaptopodin knockout) mice; 20 mM Tris-HCl pH 7.4, 5 mM EDTA, 100 mM NaCl, 1% Triton X-100; overnight at 4 °C; immunoblot with anti-pan-Homer. (In general: A western blot detects proteins with antibodies after separation by electrophoresis.)
UniProt Q3UVX5, sequence (Q3UVX5 19-1203): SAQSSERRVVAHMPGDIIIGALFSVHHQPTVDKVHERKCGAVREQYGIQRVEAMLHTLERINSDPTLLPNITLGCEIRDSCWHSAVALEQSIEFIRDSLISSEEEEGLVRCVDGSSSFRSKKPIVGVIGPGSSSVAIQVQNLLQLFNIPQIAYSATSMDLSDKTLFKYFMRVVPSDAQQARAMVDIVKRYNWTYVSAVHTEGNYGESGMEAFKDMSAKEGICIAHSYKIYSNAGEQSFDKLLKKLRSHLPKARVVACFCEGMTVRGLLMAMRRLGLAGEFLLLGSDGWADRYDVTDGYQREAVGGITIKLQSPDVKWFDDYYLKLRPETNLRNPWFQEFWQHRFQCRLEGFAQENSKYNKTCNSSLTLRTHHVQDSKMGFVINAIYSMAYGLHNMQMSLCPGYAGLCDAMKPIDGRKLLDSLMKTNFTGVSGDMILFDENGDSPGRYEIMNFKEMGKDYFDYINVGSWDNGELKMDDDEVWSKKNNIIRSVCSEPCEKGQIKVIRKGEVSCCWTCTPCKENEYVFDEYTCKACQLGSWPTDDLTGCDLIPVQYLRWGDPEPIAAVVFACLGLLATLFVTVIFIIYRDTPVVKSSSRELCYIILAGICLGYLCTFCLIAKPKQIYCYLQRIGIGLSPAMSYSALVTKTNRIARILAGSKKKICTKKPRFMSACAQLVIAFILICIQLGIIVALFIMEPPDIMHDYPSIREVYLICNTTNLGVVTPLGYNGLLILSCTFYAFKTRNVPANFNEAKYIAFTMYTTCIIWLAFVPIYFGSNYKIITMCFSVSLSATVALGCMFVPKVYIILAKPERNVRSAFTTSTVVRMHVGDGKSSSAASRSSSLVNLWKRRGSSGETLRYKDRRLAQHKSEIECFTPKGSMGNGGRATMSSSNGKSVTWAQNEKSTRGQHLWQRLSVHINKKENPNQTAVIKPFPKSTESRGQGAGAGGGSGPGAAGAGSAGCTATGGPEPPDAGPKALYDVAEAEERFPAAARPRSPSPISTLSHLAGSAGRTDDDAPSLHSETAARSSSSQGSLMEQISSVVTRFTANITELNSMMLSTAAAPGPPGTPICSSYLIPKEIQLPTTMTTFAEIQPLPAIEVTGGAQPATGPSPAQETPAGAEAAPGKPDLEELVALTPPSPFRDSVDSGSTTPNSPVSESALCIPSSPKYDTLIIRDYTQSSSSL

“Homer (long form) (from UniProt Q9Z2Y3 1-366) (natural protein)”: the coprecipitated Homer, SPKO/WT ratio came to 0.4.
